Results published in the supplement of paper PMC12667976.
± gives the standard error.

B1: library; numbered along this chain (parent)
chain: MATDAALRRLLRLHRTEIAVAVDSAFPLLHALADHDVVPEDKFQETLHLKEKEGCPQAFHALLSWLLTQDSTAILDFWRVLFKDYNLERYGRLQPILDSFPKDVDLSQPRKGRKPPAVPKALVPPPRLPTKRKASEEARAAAPAALTPRGTASPGSQLKAKPPKKPESSAEQQRLPLGNGIQTMSASVQRAVAMSSGDVPGARGAVEGILIQQVFESGGSKKCIQVGGEFYTPSKFEDSGSGKNKARSSSGPKPLVRAKGAQGAAPGGGEARLGQQGSVPAPLALPSDPQLHQKNEDECAVCRDGGELICCDGCPRAFHLACLSPPLREIPSGTWRCSSCLQATVQEVQPRAEEPRPQEPPVETPLPPGLRSAGEEVRGPPGEPLAGMDTTLVYKHLPAPPSAAPLPGLDSSALHPLLCVGPEGQQNLAPGARCGVCGDGTDVLRCTHCAAAFHWRCHFPAGTSRPGTGLRCRSCSGDVTPAPVEGVLAPSPARLAPGPAKDDTASHEPALHRDDLESLLSEHTFDGILQWAIQSMARPAAPFPS

Variants of: B1
Experiment: AIRE transcriptional activation functional score (insulin promoter-GFP; nonsense median 0, synonymous median 1) (normalised score); higher = higher AIRE activity (more reporter activation)
Settings: with insulin promoter-GFP reporter in HEK293
Outline: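 Codon-optimized AIRE NNN-codon libraries (three regions) were integrated by Bxb1 recombinase into Flp-In T-REx HEK293 landing-pad cells carrying an insulin core promoter-GFP reporter. Integrants (mCherry+, BFP−) sorted at day 7 were expanded 7 days; top 10% GFP and unselected integrant populations were tile-sequenced. Functional score is select versus non-select variant enrichment, wild-type subtracted. Variants needed 10 counts per million in non-select; scores were rescaled to nonsense median 0 and synonymous median 1, then averaged over biological replicates.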

AIRE transcriptional activation functional score: each site, then its substitutions
F459: A 0.0803 ± 0.28; K 0.78 ± 0.18; N 1.27 ± 0.12; T 0.589 ± 0.29; G 0.834 ± 0.26; W 0.395 ± 0.083; D 0.929 ± 0.076; R 0.444 ± 0.11; L 0.464 ± 0.23; S 0.591 ± 0.26; E 0.803 ± 0.1; P 0.572 ± 0.056; Q 1.14 ± 0.034; C 0.343 ± 0.067; Y 1.3 ± 0.17; V 0.585 ± 0.15; I 0.371 ± 0.23; H 1 ± 0.043
R456: K 0.0856 ± 0.29; H 1.2 ± 0.076; V -0.245 ± 0.13; I 1.1 ± 0.72; C 1.3 ± 0.088; A 1.16 ± 0.58; Y 1.51 ± 0.33; P 1.1 ± 0.16; E 1.24 ± 0.15; N 0.016 ± 0.075; W -0.304 ± 0.33; Q 1.13 ± 0.12; L 1.04 ± 0.22; T 1.32 ± 0.049; D 0.851 ± 0.091; G 1.27 ± 0.27; S 0.726 ± 0.18; F -0.0642 ± 0.14
H458: N 0.71 ± 0.04; D 1.4 ± 0.42; A 0.981 ± 0.067; R 0.586 ± 0.18; E 0.661 ± 0.096; L 0.474 ± 0.18; V 0.655 ± 0.29; I -0.227 ± 0.19; Q 0.165 ± 0.27; F 0.227 ± 0.083; K 0.374 ± 0.17; T 1.16 ± 0.05; M 0.387 ± 0.26; G 0.842 ± 0.14; C 1.02 ± 0.049; Y 0.864 ± 0.076; P 0.0561 ± 0.15; S 0.164 ± 0.44
C457: P 0.211 ± 0.21; R -0.0861 ± 0.31; G 0.0376 ± 0.09; M -0.234 ± 0.073; L -0.0524 ± 0.16; E 0.0401 ± 0.23; H 0.798 ± 0.2; T -0.0599 ± 0.15; I -0.23 ± 0.29; V 0.0733 ± 0.26; W 0.0502 ± 0.067; F 0.264 ± 0.22; A 0.0339 ± 0.14; D 0.0222 ± 0.03; S -0.11 ± 0.2; Q 0.613 ± 0.35; Y 0.105 ± 0.083
F453: W 1.24 ± 0.025; I 0.235 ± 0.3; P 0.207 ± 0.28; H 0.147 ± 0.12; N 0.22 ± 0.092; T 0.101 ± 0.19; G 0.315 ± 0.17; M 0.268 ± 0.046; E -0.452 ± 0.21; V 0.154 ± 0.15; L 0.17 ± 0.11; Q -0.136 ± 0.063; K -0.248 ± 0.043; Y 0.32 ± 0.23; S 0.166 ± 0.19; R 0.106 ± 0.18
H454: A -0.16 ± 0.2; M -0.148 ± 0.12; P 0.129 ± 0.22; K 0.0788 ± 0.13; I -0.0282 ± 0.35; Q 0.0498 ± 0.081; G 0.0883 ± 0.26; D 0.289 ± 0.075; R -0.0692 ± 0.18; N -0.0603 ± 0.43; F 0.117 ± 0.17; V 0.0829 ± 0.3; C 0.499 ± 0.32; S -0.00319 ± 0.2; Y 0.205 ± 0.11; T 0.0122 ± 0.18; W 0.31 ± 0.15; L -0.161 ± 0.21; E 0.0475 ± 0.31
W455: R 0.879 ± 0.084; C 1.09 ± 0.14; G 0.965 ± 0.27; P 1.3 ± 0.12; N 1.34 ± 0.048; A 1.1 ± 0.27; S 0.675 ± 0.2; V 1.17 ± 0.15; I 0.29 ± 0.38; T 0.727 ± 0.17; M 0.774 ± 0.17; D 0.9 ± 0.14; Y 0.988 ± 0.11; E 1.17 ± 0.072; H 0.823 ± 0.085; F 1.3 ± 0.1; Q 1.09 ± 0.043; L 1.03 ± 0.18; K 0.572 ± 0.078
P460: V 0.608 ± 0.31; C -0.358 ± 0.13; Y 0.38 ± 0.15; S 0.714 ± 0.33; I 1.01 ± 0.32; G 0.909 ± 0.31; T 0.871 ± 0.4; H 1.05 ± 0.09; E 1.16 ± 0.098; F 0.995 ± 0.098; R 0.824 ± 0.35; N 1.07 ± 0.14; Q 0.787 ± 0.069; L 0.827 ± 0.23; K 0.952 ± 0.08; M 1.17 ± 0.068; D 0.0955 ± 0.17; A 1.14 ± 0.2
G462: E 0.465 ± 0.043; D 0.731 ± 0.1; C 0.984 ± 0.24; F 1.26 ± 0.15; A 0.924 ± 0.07
A461: G 1.29 ± 0.17; W 1.01 ± 0.044; H 1.23 ± 0.27; N 1.38 ± 0.038; T 0.39 ± 0.7; I 0.816 ± 0.25; Y 1.16 ± 0.12; K 1.18 ± 0.052; F 1.21 ± 0.17; C 0.883 ± 0.1; M 1.27 ± 0.037; E 0.952 ± 0.25; V 1.17 ± 0.24; L 1.28 ± 0.14; D 0.676 ± 0.16; Q 0.964 ± 0.089; R 0.878 ± 0.14; S 1.22 ± 0.23; P 1.19 ± 0.2
